Test: soluble on expression in E. coli; label from the status in PepcDB or PDB records

Sequence | soluble on expression in E. coli
MSEAEAKLWQHLRAGRLNGYKFRRQQPMGNYIVDFMCVTPKLIVEADGGQHAEQAVYDHARTVYLNSLGFTVLRFWNHEILQQTNDVLAEILRVLQELEKQ | soluble
GTQPTFGFTVNWKFSESTTVFTGQCFIDRNGKEVLKTMWLLRSSVNDIGDDWKATRVGINIFTRLRTQKEGGSGGSARKCSLTGKWTNDLGSNMTIGAVNSRGEFTGTYITAVTATSNEIKESPLHGTQNTINKSGGSTTVFTGQCFIDRNGKEVLKTMWLLRSSVNDIGDDWKATRVGINIFTRLRTQKEGGSGGSARKCSLTGKWTNDLGSNMTIGAVNSRGEFTGTYITAVTATSNEIKESPLHGTQNTINKRTQPTFGFTVNWKFSE | soluble
MTENLLAERHALRWVFLYEFPQICNCNEARRNMCAVLGKNSVTYNTMKFWFEKFTKKNYDLDDKPR | soluble
MGSDKIHHHHHHMGRAPTMEADMRILLLCWRDTTHPQGGGSERYLEHIAKYLVASGHEVIFRTARHTDASRRAVRDGVEYQYAGGKYSVYVRAAVAQLMGRLGVGRLRGVDVAVDTQNGIPFFARVFSGVPTILLTHHCHRRQWDVAGPLIARLGWFIESKVSPWVHRGVRYVTVSEPSRDELVELGVPAGNITIVRNGIDDPPAPMNLPPVTRPHLVTLSRLVPHKQIEHAIDVVRELDGVVLDIIGSGWWEPQLREYARDVADRVIFHGQVAEDHKHALLAQAAVHVMPSRKEGWGLAVIEAGQHGVPTVGYSHSGGLRDSVRGGGVLVETPAQLTCAIRQLLADQRYRDELGRRAYGFASTFSWEDTGREFLRVIAQPQIPAAAHSTKQPNPR | not soluble
TKDFEWSSTINAAYQKDEIVELANGKQDDISNAWFIGESINVFYGTASDGLWQESDAAEMAKFNANGHKFEAGMVKPVDQDGNYIIDSNDRIILGNKNPKWVLGWSNTFNYKGLELGIELNGRFGYMVDTGGEGQYGMYNQREISYWTPDNTGADYQKPIYSTAGGDAYSSLLGFKDASFIKIRNISLGYNFNSKALKNIGISSLKLYAQAKNIGNLYSSVDFMDLDLGTTYYNRGFTFGLQVGF | not soluble
MEKNKSSSPDFSVRDFFKRFPDDEACLEHIFNVRFGARHVCRACGVESTFHRMSDRRAFACAACGDHVYPTAGTIFQDTRTPLQVWFYAIYLFVTTRHGVSGKELQRQLGVTYKTAWRIGHKIREQMDKHDLKAMLQGHVEIDEAYIGGKRPGKRGRGAAGKTIVMGFKQRGGRLVTEIVPDVKLKTLRAETLKTVDAGATVSTDELYSYSLLKGEGYTHVAVKHGAKQWTIYDAETDTMHHTNHVESFWRHFKHSIRGTHVSISQRHMRKYLDEFTFRANHRGEVNLMFDRLVAAFLEHHHHHH | soluble
MALDANDLLPPEKAFVPELAVADDGVNVRFRIADGYYMYQAKIVGKTNPADLLGQPSFSKGEEKEDEFFGRQTVYHHEAQVAFPYAKAVGEPYKLVLTYQGSAEAGVCYPPVDTEFDIFGNGTYHPQT | soluble
MGSDKIHHHHHHMNFKQLNYFLVVAEEGQITSAAKRLFVGQPALSYQLKQLEEELGAKLFIRQPYGIELTEAGKKLRDYAGQILTLAQNVQTEITELDRGGWGRVKLGSVSSSIGELPSAKLTAFARQHPGVSFDIYEDNTFGILDKLQGNLLDLAIVRTPYNRVNLNFVDISDEPMTAVTCQDFFPGKGKVGLQDLAGQPLVIYRRFEDMFKEAFAEKGLTPNFVVKCDDSRTAIRWSDSGLGIALVPESIAKTYARGHIYPIDLAKWRTRLQLVWRKDRVVTPLMRQIIALYAK | not soluble
MGHHHHHHSHMASRWQNMGTSVRRRSLQHQEQLEDSKELQPVVSHQETSVGALGSLCRQFQRRLPLRAVNLNLRAGPSWKRLETPEPGQQGLQAAARSAKSALGAVSQRIQESCQSGTKWLVETQVKARRRKRGAQKGSGSPTHSLSQKSTRLSGAAPAHSAADPWEKEHHRLSVRMGSHAHPLRRSRREAAFRSPYSSTEPLCSPSESDSDLEPVGAGIQHLQKLSQELDEAIMAEERKQALSDRQGFILKDVYASP | not soluble
MGSDKIHHHHHHMTTPLLEINDLVVSYQTAKGLVHAVNNVSLEVHPGQITAIVGESGSGKSTTAQAVIGLLADNAEVDSGRISFNGRSLVGLNAREWKNVRGTKIGLIPQDPNNSLNPVKTIGASVGEGLAIHKRGTAAERKKKVIELLERVGIDNPEVRYDQYPHELSGGMKQRALIAAAIALEPELIIADEPTSALDVTVQKIILDLLEDMQRELGMGILFITHDLAVAGDRADRIVVMQKGEVRESGYAASVLTDPQHEYSKKLLADAPSLTIGEIPTRVPAVDPEVAQAKGPLLVVDKFRKEHQRGKEGAFVAANDISFEVLPGTTHAIVGESGSGKTTLGRAIAMFNTPTSGSISVSGKDITNLSKAQQRELRQQIQLVYQNPYSSLDPRQTIGSTIAEPLRNFTKVSKQEADEKVAHYLELVALDPALATRRPRELSGGQRQRVAIARAMILEPELVVFDEAVSALDVTVQAQILRLLDDLQRELGLTYVFISHDLAVVREISDTVSVMSRGNQVELGKTAEVFNNPQTDFTRRLIDAIPGSRYRGGELNLGL | not soluble
MRVYDMHVHLHEYSDREVEEILDADKSLVVVAVSDDLESAWRTLDLWHTFGGRVVPCLGFHPWNVREGRVWEAWEVLRLAYRYGVPCLGEVGLDRRFVDEYTWRVQNEVFDAFVQLAEDMGVMLNIHAPDAWKHVAHRIGWTSRARFMYHWYTGPATLPRALPEGRVWFSINSAIRVQEKSVRVAREIPLRSLVVESDGPYNYRGLRLSPLMVRETVKLVAEARGEDPGRLMEAISLNSERLLGLL | not soluble
MQVSGSSGNRIWDANLSQNLTYTWTPQTYSGFYYDLDTGEGSENMTIQLTEGSRSVQRNGLQYETRPIETNFEYGNWGSYQVIGFMAERYFAGYTENSNFVNDDISVISDGQLSKILIDSDDRKSLYTGSSLILEEGYSLNIVEVDVNGNTVWVQLEKDGDVIDNGFLSSNSNYVYETDLGDADDVPLIAVHLAQIFRGTETNAIFVEGIFQISDEYVQIENGDRFGKMEISSTSSSGIIMRNRDSFTLGRGDTVDIMGKLSFVVADSSELRFAPIVEISEPGTYELRLEHHHHHH | not soluble
MGHHHHHHSHVLLFVYGEPVTRPHSGPAVYFWRHRKQADLDLARGDFAQAAQQLWLALRALGRPLPTSHLDLACSLLWNLIRHLLQRLWVGRWLAGRAGGLQQDCALRVDASASARDAALVYHKLHQLHTMGKHTGGHLTATNLALSALNLAECAGDAVSVATLAEIYVAAALRVKTSLPRALHFLTRFFLSSARQACLAQSGSVPPAMQWLCHPVGHRFFVDGDWSVLSTPWESLYSLAGNPVDPLAQVTQLFREHLLERALNCVTQPNPSPGSADGDKEFSDALGYLQLLNSCSDAAGAPAYSFSISSSMATTTGVDPVAKWWASLTAVVIHWLRRDEEAAERLCPLVEHLPRVLQESERPLPRAALHSFKAARALLGCAKAESGPASLTICEKASGYLQDSLATTPASSSIDKAVQLFLCDLLLVVRTSLWRQQQPPAP | not soluble
MGSSHHHHHHSSGLVPRGSHELGGRVSGSLAWRVARGETGLERKEILFIPSENEKISKQFHLRYDIVRDRYIRVSDNNTNISGWENGVWKMESIFRKVEKDWNMVYLARKEGSSFAYISWKFECGSAGLKVDTVSIRTSSQSFESGSVRWKLRSETAQVNLLGDKNLRSYNDFSGATEVTLEAELSRGDGDVAWQHTQLFRQSLNDSGENGLEIIITFNDL | soluble
MEQIVSSLWSDCLNHLQTKVSPIDYSTWLRPLQASFANEELTLYAQNPFVENWVKDKFLTEIIDLARFLSKNEQLKITIRVGNKPTEQNLSASSTNKEELTQDTVHKFKTGLNGRLTFDNFVQGKSNQLAKAVAQQVADNPGESHCNPFSLYGGTGLGKTHLLHAVGNEILKRNPQARVVYIHSERFVQDMVKALKNNTIENFKKFYRSLDVLMIDDIQFFAKKEASQEEFFHTFNSLFERNKQIILASDHFPKNIENIEERIKSRLNWGVSTAIEPPELETRVAILMKKAEERNVELPEEVAFYLGQKLRTNVRELEGAINRVSAWCNFTKRQITIDAVRETLKDLIASYDHLVTIENIQKIVAEYYNIKMADLKSKSRTRSIARPRQMAMALAKELTSHSLPEIGREFGGRDHTTVMHACKTINELRDTDNSIQEDYTNLTRKLSSLEHHHHHH | soluble

Reference: the DeepSol protein solubility set
